Key:
[1] = target: T1, MHGW8 (B2m-3(G4S)-HLA-G1-G4S-Avi) (human, biotinylated (Avi tag) in the blocking assay); test: SPR, mAb captured by goat anti-human Fc, MHGW8 flowed
T1 construct: Single chain β2m-HLA-G1; also called soluble HLA-G1 extracellular domain; recombinant biotinylated HLA-G1

[2] = target: T1, MHGW8 (B2m-3(G4S)-HLA-G1-G4S-Avi); test: flow cytometry competition: blocks MHGW8-dextramer binding to ILT4 on HEK293T cells (competitor ILT4)
[3] = target: T2, HLA-G on cells (K562-HLA-G and HLA-G expressing tumor cells) (human); test: flow cytometry, IgG1 mAb on cells expressing HLA-G
T2 construct: whole, on cells; also called HLA-G1

[4] = target: T2, HLA-G on cells (K562-HLA-G and HLA-G …); test: cell-based or functional assay
[5] = target: T3, CD3W147 (homodimeric CD3εγ-Fc) (human, biotinylated); test: ELISA, E. coli supernatant (heated to 60° C., cooled) on biotinylated CD3W147
T3 construct: also called recombinant CD3
T3 chain: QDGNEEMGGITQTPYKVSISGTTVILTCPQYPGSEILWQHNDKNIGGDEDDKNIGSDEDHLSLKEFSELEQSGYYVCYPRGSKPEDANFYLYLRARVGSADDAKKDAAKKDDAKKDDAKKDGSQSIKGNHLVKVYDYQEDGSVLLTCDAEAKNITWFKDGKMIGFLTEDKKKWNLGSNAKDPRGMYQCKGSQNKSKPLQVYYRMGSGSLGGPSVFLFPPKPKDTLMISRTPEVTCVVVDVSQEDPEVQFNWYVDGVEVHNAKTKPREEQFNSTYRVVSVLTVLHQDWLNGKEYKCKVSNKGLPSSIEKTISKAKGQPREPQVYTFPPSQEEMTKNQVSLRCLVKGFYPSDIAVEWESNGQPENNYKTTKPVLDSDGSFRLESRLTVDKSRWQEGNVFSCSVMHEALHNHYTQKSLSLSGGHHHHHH

[6] = target: T4, Human CD3 epsilon (CD3ε) of the T cell receptor complex on cells (human, UniProt P07766 23-207); test: flow cytometry, E. coli supernatant on human T cells
T4 construct: On Jurkat cells and primary human (pan) T cells; also called T-cell surface glycoprotein CD3 epsilon chain; T3E
T4 sequence (P07766 23-207 limits assumed, one chain of several): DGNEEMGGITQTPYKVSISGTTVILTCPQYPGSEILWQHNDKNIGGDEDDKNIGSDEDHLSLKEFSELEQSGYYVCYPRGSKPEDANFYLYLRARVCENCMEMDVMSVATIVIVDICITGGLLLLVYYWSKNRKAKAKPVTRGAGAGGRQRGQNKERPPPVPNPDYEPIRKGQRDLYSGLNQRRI

[7] = target: T1, MHGW8 (B2m-3(G4S)-HLA-G1-G4S-Avi); test: flow cytometry competition: blocks MHGW8-dextramer binding to ILT2 on HEK293T cells (competitor ILT2)

Binder | binding result [5] | MFI (n = 2) [6] | other results
MHGB687 (antibody, human IgG1, kappa, V domains shown, IgG1) VH: QLQLQESGPGLVKPSETLSLMCTVSGGSITSSSYYWGWIRQPPGKGLEWIGNIYYSGTTYYNPSLKSRVTISVDTSKNQFSLKLSSVTAADTAVYYCAAGARDFDSWGQGSLVTVSS VL: not shown | – | – | Kd [1]: 0.809 nM; koff [1]: 0.000153 s⁻¹; kon [1]: 189000 M⁻¹ s⁻¹; EC50 [2]: 1860 nM; GeoMean fluorescence (maximum value) [3]: 528000
HC3B236 (bispecific antibody, human IgG1, kappa, L234A L235A) scFv: QSALTQPASVSGSPGQSITISCTGTSSNIGTYKFVSWYQQHPGKAPKVMIYEVSKRPSGVSNRFSGSKSGNTASLTISGLQAEDEADYYCVSYAGSGTLLFGGGTKLTVLGGSEGKSSGSGSESKSTGGSQVQLQQSGPGLVKPSQTLSLTCAISGDSVFNNNAAWSWIRQSPSRGLEWLGRTYYRSKWLYDYAVSVKSRITINPDTSKNQFSLQLNSVTPEDTAVYYCARGYSSSFDYWGQGTLVTVSSEPKSSDKTHTCPPCPAPEAAGGPSVFLFPPKPKDTLMISRTPEVTCVVVSVSHEDPEVKFNWYVDGVEVHNAKTKPREEQYNSTYRVVSVLTVLHQDWLNGKEYKCKVSNKALPAPIEKTISKAKGQPREPQVYVYPPSREEMTKNQVSLTCLVKGFYPSDIAVEWESNGQPENNYKTTPPVLDSDGSFALVSKLTVDKSRWQQGNVFSCSVMHEALHNHYTQKSLSLSPG heavy: QVQLQQSGPGLVKPSQTLSLTCAISGDSVSSNRAAWNWIRQSPSRGLEWLGRTYYRSKWYNDYAVSVKSRITINPDTSKNQISLQLNSVTPEDTAVYYCARVRPGIPFDYWGQGTPVTVSSASTKGPSVFPLAPSSKSTSGGTAALGCLVKDYFPEPVTVSWNSGALTSGVHTFPAVLQSSGLYSLSSVVTVPSSSLGTQTYICNVNHKPSNTKVDKKVEPKSCDKTHTCPPCPAPEAAGGPSVFLFPPKPKDTLMISRTPEVTCVVVSVSHEDPEVKFNWYVDGVEVHNAKTKPREEQYNSTYRVVSVLTVLHQDWLNGKEYKCKVSNKALPAPIEKTISKAKGQPREPQVYVLPPSREEMTKNQVSLLCLVKGFYPSDIAVEWESNGQPENNYLTWPPVLDSDGSFFLYSKLTVDKSRWQQGNVFSCSVMHEALHNHYTQKSLSLSPG light: not shown | – | – | Cytotoxicity, EC50 (T cell-mediated, NCI-H2009-b2m target cells, 72 hr) [4]: 4.54 nM
CD3W245-HL-E.c. (scFv, E. coli supernatant) scFv: EVQLVESGGGLVKPGGSLRLSCAASGFTFSRYNMNWVRQAPGKGLEWVSSISTSSNYIYYADSVKGRFTFSRDNAKNSLDLQMSGLRAEDTAIYYCTRGWGPFDYWGQGTLVTVSSGTEGKSSGSGSESKSTDIQMTQSPSSLSASVGDRVTITCRARQSIGTAIHWYQQKPGKAPKLLIKYASESISGVPSRFSGSGSGTDFTLTISSLQPEDFATYYCQQSGSWPYTFGQGTKLEIKGPGGQHHHHHHGAYPYDVPDYAS | binds | 178000 | –
CD3W241-HL-E.C. (scFv) EVQLVESGGGLVKPGGSLRLSCAASGFTFSRYNMNWVRQAPGKGLEWVSSISTSSNYIYYADSVKGRFTFSRDNAKNSLDLQMSGLRAEDTAIYYCTRGWGPFDYWGQGTLVTVSSGTEGKSSGSGSESKSTDIQMTQSPSSLSASVGDRVTITCRARQSIGTAIHWYQQKPGKAPKLLIYYASESISGVPSRFSGSGSGTDFTLTISSVQPEDFATYYCQQSNSWPYTFGQGTKLEIKGPGGQHHHHHHGAYPYDVPDYAS | – | 121000 | –
CD3W234-HL-E.c. (scFv, E. coli supernatant; also called CD3B815-HL-scFV) scFv: EVQLVESGGGLVKPGGSLRLSCAASGFTFSRYNMNWVRQAPGKGLEWVSSISTSSNYIYYADSVKGRFTFSRDNAKNSLDLQMSGLRAEDTAIYYCTRGWGPFDYWGQGTLVTVSSGTEGKSSGSGSESKSTDILLTQSPGILSVSPGERVSFSCRARQSIGTAIHWYQQRTNGSPRLLIKYASESISGIPSRFSGSGSGTDFTLTINSVESEDIADYYCQQSNSWPYTFGGGTKLEIKGPGGQHHHHHHGAYPYDVPDYAS | binds | 66800 | –
MHGB668 (antibody, human IgG1, kappa, V domains shown, IgG1) VH: QVQLQQSGPGLVKPSQTLSLTCAISGDSVSNNSAAWNWIRQSPSRGLEWLGRTYYRSKWYNDYAVSVKSRITINPDTSKNQFSLQLNSVTPEDTAVYYCARYGSGTLLFDYWGQGTLVTVSS VL: not shown | – | – | GeoMean fluorescence (maximum value) [3]: 591000
MHGB688 (antibody, human IgG1, kappa, V domains shown, IgG1) VH: EVQLLESGPGLVKPSQTLSLTCVISGDSVSSNRAAWNWIRQSPSRGLEWLGRTYYRSKWYNDYAVSVKSRITINSDTSKNQISLQLNSVTPEDTAVYYCARVRPGIPFDYWGQGTPVTVSS VL: not shown | – | – | Kd [1]: 0.4 nM; koff [1]: 0.000263 s⁻¹; kon [1]: 658000 M⁻¹ s⁻¹; EC50 [2]: 1420 nM; EC50 [7]: 1720 nM; GeoMean fluorescence (maximum value) [3]: 482000
MHGB738 (antibody, human IgG1, kappa, V domains shown, IgG1; also called GL optimized B688) VH: QVQLQQSGPGLVKPSQTLSLTCAISGDSVSSNRAAWNWIRQSPSRGLEWLGRTYYRSKWYNDYAVSVKSRITINPDTSKNQISLQLNSVTPEDTAVYYCARVRPGIPFDYWGQGTPVTVSS VL: not shown | – | – | Kd [1]: 0.139 nM; EC50 [2]: 1.6 nM; EC50 [7]: 1.6 nM

The next lines start with results.

binding result [5] | MFI (n = 2) [6] | Binder | other results
binds | 154000 | CD3W246-HL-E.c. (scFv, E. coli supernatant) scFv: EVQLVESGGGLVKPGGSLRLSCAASGFTFSRYNMNWVRQAPGKGLEWVSSISTSSNYIYYADSVKGRFTFSRDNAKNSLDLQMSGLRAEDTAIYYCTRGWGPFDYWGQGTLVTVSSGTEGKSSGSGSESKSTDIQMTQSPSSLSASVGDRVTITCRARQSIGTAIHWYQQKPGKAPKLLIKYASESISGVPSRFSGSGSGTDFTLTISSVQPEDFATYYCQQSGSWPYTFGQGTKLEIKGPGGQHHHHHHGAYPYDVPDYAS | –
binds | 137000 | CD3W238-HL-E.c. (scFv, E. coli supernatant) scFv: EVQLVESGGGLVKPGGSLRLSCAASGFTFSRYNMNWVRQAPGKGLEWVSSISTSSNYIYYADSVKGRFTFSRDNAKNSLDLQMSGLRAEDTAIYYCTRGWGPFDYWGQGTLVTVSSGTEGKSSGSGSESKSTDIQMTQSPSSLSASVGDRVTITCRARQSIGTAIHWYQQKPGKAPKLLIYYASESISGVPSRFSGSGSGTDFTLTISSLQPEDFATYYCQQSNSWPYTFGQGTKLEIKGPGGQHHHHHHGAYPYDVPDYAS | –
binds | 166000 | CD3W244-HL-E.c. (scFv, E. coli supernatant) scFv: EVQLVESGGGLVKPGGSLRLSCAASGFTFSRYNMNWVRQAPGKGLEWVSSISTSSNYIYYADSVKGRFTFSRDNAKNSLDLQMSGLRAEDTAIYYCTRGWGPFDYWGQGTLVTVSSGTEGKSSGSGSESKSTDIQMTQSPSSLSASVGDRVTITCRARQSIGTAIHWYQQKPGKAPKLLIYYASESISGVPSRFSGSGSGTDFTLTISSVQPEDFATYYCQQSGSWPYTFGQGTKLEIKGPGGQHHHHHHGAYPYDVPDYAS | –
binds | 111000 | CD3W247-HL-E.c. (scFv, E. coli supernatant) scFv: EVQLVESGGGLVKPGGSLRLSCAASGFTFSRYNMNWVRQAPGKGLEWVSSISTSSNYIYYADSVKGRFTFSRDNAKNSLDLQMSGLRAEDTAIYYCTRGWGPFDYWGQGTLVTVSSGTEGKSSGSGSESKSTDIQMTQSPSSLSASVGDRVTITCRARQSIGTAIHWYQQKPGKAPKLLIYYASESISGVPSRFSGSGSGTDFTLTISSLQPEDFATYYCQQSGSWPYTFGQGTKLEIKGPGGQHHHHHHGAYPYDVPDYAS | –
binds | 111000 | CD3W243-HL-E.c. (scFv, E. coli supernatant) scFv: EVQLVESGGGLVKPGGSLRLSCAASGFTFSRYNMNWVRQAPGKGLEWVSSISTSSNYIYYADSVKGRFTFSRDNAKNSLDLQMSGLRAEDTAIYYCTRGWGPFDYWGQGTLVTVSSGTEGKSSGSGSESKSTDIQMTQSPSSLSASVGDRVTITCRARQSIGTAIHWYQQKPGKAPKLLIKYASESISGVPSRFSGSGSGTDFTLTISSVQPEDFATYYCQQSNSWPYTFGQGTKLEIKGPGGQHHHHHHGAYPYDVPDYAS | –
binds | 126000 | CD3W242-HL-E.c. (scFv, E. coli supernatant) scFv: EVQLVESGGGLVKPGGSLRLSCAASGFTFSRYNMNWVRQAPGKGLEWVSSISTSSNYIYYADSVKGRFTFSRDNAKNSLDLQMSGLRAEDTAIYYCTRGWGPFDYWGQGTLVTVSSGTEGKSSGSGSESKSTDIQMTQSPSSLSASVGDRVTITCRARQSIGTAIHWYQQKPGKAPKLLIKYASESISGVPSRFSGSGSGTDFTLTISSLQPEDFATYYCQQSNSWPYTFGQGTKLEIKGPGGQHHHHHHGAYPYDVPDYAS | –
binds | 60400 | CD3W248-HL-E.c. (scFv, E. coli supernatant) scFv: EVQLVESGGGLVKPGGSLRLSCAASGFTFSRYNMNWVRQAPGKGLEWVSSISTSSNYIYYADSVKGRFTFSRDNAKNSLDLQMSGLRAEDTAIYYCTRGWGPFDYWGQGTLVTVSSGTEGKSSGSGSESKSTDILLTQSPGILSVSPGERVSFSCRARQSIGTAIHWYQQRTNGSPRLLIKYASESISGIPSRFSGSGSGTDFTLTINSVESEDIADYYCQQSGSWPYTFGGGTKLEIKGPGGQHHHHHHGAYPYDVPDYAS | –

Source: patent publication US20220411504A1 (Janssen / Centocor, published 2022)
